Laboratory results published in patent US20090149389A1 (PURDUE RESEARCH FOUNDATION, published 2009).

Legend:
Experiment in all cases: cell-based or functional assay
ROCK-1 (h) = ROCK-1 (h) (human (h), UniProt Q13464 17-535, limits assumed)
CHK1 (h) = biological target: T1, CHK1 (h) (human (h), UniProt O14757 1-476)
T1 sequence (looked up): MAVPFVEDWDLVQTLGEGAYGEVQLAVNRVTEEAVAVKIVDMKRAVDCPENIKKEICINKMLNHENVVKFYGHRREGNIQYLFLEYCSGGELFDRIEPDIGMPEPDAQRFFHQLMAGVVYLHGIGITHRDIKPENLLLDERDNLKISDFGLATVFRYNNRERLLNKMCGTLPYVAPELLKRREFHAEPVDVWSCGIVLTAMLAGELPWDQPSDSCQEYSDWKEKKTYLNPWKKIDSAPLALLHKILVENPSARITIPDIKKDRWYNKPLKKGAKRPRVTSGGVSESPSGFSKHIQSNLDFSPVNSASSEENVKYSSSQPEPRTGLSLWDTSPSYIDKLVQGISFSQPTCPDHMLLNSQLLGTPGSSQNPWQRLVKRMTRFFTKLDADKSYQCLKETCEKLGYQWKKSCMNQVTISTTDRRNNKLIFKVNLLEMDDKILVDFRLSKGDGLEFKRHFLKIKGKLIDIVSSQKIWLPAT

AMPK (r) = AMPK (r) (rat (r), UniProt Q09137 1-552, limits assumed)
Chain of AMPK (r) (Q09137 whole entry): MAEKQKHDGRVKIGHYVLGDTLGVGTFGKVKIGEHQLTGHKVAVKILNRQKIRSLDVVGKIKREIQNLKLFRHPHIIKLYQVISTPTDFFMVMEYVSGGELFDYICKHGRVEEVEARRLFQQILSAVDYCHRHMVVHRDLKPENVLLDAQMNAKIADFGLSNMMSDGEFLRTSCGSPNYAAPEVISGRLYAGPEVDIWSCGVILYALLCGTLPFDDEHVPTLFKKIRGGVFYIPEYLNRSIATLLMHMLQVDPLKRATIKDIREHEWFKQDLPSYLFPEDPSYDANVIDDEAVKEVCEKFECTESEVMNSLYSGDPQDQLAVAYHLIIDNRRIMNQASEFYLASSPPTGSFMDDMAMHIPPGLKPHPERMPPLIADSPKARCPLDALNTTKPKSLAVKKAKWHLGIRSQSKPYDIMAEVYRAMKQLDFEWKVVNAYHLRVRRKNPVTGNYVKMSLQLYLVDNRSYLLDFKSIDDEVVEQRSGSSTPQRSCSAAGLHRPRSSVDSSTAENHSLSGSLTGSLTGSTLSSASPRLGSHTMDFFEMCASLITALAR

KDR (tl) = KDR (tl) (UniProt P35968 790-1356, limits assumed)
EphA2 (h) = biological target: T2, EphA2 (h) (human (h), UniProt P29317 591-976, limits assumed)
T2 sequence (looked up): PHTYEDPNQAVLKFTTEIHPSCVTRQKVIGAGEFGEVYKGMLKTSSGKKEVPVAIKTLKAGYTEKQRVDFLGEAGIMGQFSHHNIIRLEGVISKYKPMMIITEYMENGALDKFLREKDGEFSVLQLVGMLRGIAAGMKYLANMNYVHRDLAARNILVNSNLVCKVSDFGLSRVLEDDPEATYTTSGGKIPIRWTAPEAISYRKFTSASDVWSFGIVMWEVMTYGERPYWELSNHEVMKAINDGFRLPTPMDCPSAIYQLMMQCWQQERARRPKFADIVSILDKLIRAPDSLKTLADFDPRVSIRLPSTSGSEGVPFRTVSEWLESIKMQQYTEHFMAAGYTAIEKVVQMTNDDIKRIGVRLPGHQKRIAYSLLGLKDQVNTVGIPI

FGFR1 (h) = FGFR1 (h) (human (h), UniProt P11362 456-765, limits assumed)
Chain of FGFR1 (h) (P11362 456-765 limits assumed): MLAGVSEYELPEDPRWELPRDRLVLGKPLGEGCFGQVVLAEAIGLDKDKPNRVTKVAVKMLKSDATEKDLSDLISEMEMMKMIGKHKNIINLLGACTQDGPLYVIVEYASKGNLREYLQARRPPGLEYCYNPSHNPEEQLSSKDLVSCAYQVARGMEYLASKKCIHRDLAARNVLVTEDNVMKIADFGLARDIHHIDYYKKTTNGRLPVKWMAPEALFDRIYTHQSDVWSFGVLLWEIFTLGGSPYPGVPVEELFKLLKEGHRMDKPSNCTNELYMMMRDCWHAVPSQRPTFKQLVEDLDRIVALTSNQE

MLCK (h) = MLCK (h) (human (h))
Src(1-530) (h) = Src(1-530) (h) (human (h), UniProt P12931 1-530)
CKIB (h) = CKIB (h) (human (h))
cKit (h) = cKit (h) (human (h), UniProt P10721 544-976, limits assumed)
Chain of cKit (h) (P10721 544-976 limits assumed): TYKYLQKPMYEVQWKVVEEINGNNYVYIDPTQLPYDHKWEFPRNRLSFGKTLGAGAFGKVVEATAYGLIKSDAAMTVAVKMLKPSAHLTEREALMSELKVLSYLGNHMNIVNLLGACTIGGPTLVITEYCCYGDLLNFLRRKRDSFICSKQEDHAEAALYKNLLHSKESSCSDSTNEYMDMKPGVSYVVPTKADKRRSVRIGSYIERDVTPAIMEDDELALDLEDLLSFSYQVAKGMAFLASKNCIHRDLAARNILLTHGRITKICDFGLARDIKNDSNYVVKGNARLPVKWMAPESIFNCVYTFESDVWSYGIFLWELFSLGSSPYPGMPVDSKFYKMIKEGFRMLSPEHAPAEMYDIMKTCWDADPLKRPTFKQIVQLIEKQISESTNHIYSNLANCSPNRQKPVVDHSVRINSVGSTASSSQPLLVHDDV

IGF-IR (h) = IGF-IR (h) (human (h), UniProt P08069 959-1367, limits assumed)
Chain of IGF-IR (h) (P08069 959-1367 limits assumed): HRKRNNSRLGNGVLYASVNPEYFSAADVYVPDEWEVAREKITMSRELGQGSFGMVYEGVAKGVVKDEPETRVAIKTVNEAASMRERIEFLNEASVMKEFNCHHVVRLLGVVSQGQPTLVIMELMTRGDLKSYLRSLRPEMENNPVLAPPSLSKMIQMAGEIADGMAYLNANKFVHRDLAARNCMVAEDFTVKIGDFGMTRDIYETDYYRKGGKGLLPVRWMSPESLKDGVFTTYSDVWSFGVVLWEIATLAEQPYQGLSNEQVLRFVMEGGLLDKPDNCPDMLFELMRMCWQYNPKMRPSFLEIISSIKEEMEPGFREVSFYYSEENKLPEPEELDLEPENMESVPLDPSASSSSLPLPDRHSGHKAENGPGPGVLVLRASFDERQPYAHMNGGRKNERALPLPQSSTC

Flt3 (h) = biological target: T3, Flt3 (h) (human (h), UniProt P36888 564-993, limits assumed)
T3 sequence (looked up): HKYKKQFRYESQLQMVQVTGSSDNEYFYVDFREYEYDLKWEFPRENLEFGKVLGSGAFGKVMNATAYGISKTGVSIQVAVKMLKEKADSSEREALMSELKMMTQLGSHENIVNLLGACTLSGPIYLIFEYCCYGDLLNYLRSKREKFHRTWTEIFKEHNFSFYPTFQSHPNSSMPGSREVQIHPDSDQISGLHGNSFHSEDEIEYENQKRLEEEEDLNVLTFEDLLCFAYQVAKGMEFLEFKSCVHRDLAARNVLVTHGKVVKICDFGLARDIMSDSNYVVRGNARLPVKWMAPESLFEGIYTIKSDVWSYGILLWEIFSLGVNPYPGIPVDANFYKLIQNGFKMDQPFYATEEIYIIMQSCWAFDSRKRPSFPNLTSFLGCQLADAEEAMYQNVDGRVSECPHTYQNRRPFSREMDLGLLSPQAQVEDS

MAPKAP-K3 (h) = MAPKAP-K3 (h) (human (h), UniProt Q16644 1-382, limits assumed)
Chain of MAPKAP-K3 (h) (Q16644 whole entry): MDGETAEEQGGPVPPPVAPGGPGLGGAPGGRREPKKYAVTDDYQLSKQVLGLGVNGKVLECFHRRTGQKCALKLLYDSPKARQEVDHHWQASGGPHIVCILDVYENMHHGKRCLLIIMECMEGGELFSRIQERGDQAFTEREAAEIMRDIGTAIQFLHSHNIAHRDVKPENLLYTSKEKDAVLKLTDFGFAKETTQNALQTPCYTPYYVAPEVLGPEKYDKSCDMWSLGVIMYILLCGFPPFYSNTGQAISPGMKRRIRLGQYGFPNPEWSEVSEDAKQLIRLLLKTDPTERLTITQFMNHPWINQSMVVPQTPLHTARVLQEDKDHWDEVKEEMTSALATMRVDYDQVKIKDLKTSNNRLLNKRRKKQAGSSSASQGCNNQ

MSK2 (h) = MSK2 (h) (human (h), UniProt O75676 1-772, limits assumed)
Chain of MSK2 (h) (O75676 whole entry): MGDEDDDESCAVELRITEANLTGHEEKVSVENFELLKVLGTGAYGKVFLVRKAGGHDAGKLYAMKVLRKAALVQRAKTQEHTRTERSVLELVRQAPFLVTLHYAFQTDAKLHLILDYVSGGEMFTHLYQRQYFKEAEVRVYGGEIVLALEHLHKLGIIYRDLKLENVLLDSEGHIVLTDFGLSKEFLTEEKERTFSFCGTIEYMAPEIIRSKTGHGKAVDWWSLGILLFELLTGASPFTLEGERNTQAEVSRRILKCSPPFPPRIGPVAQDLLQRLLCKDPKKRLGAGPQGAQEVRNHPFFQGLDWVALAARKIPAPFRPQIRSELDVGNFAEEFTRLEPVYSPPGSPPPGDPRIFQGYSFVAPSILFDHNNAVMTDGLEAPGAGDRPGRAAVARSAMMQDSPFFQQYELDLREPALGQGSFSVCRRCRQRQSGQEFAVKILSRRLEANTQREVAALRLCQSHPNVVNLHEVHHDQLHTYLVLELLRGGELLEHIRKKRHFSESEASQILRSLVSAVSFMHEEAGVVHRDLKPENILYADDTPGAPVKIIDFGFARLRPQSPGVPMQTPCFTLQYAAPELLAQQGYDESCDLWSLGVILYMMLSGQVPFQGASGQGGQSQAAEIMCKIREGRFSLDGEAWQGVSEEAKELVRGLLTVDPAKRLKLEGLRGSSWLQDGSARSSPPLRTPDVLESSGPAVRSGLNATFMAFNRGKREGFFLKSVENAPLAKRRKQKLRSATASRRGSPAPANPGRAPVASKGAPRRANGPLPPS

EGFR (h) = EGFR (h) (human (h), UniProt P00533 696-1210, limits assumed)
JNK1α1 (h) = JNK1α1 (h) (human (h), UniProt P45983-2 1-384)
Chain of JNK1α1 (h) (P45983 other isoform, or with tags, fused parts or gaps limits assumed): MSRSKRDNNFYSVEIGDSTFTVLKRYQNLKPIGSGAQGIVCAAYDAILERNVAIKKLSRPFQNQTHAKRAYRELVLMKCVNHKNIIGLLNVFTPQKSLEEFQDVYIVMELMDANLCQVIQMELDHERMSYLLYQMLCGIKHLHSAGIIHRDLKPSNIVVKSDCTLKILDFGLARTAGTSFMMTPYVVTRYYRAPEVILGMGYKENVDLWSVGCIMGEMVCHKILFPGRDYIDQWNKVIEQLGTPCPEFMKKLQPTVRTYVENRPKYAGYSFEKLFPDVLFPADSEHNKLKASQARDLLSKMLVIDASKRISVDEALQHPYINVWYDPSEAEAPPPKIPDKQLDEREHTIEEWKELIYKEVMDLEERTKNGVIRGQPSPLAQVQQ

GSK3β (h) = GSK3β (h) (human (h), UniProt P49841 1-420)
Chain of GSK3β (h) (P49841 whole entry): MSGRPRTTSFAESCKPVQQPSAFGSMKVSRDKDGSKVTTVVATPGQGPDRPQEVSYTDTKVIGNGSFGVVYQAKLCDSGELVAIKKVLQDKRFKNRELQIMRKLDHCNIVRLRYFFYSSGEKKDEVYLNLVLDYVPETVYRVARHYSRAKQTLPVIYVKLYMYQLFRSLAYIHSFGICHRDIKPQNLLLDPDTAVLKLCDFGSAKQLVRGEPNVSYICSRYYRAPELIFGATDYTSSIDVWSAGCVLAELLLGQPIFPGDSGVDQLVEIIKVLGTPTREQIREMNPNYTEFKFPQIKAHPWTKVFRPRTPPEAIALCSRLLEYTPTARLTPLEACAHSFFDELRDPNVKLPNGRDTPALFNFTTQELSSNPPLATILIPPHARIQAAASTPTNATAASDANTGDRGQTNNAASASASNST

ASK1 (h) = ASK1 (h) (human (h), UniProt Q99683 649-946, limits assumed)
Chain of ASK1 (h) (Q99683 649-946 limits assumed): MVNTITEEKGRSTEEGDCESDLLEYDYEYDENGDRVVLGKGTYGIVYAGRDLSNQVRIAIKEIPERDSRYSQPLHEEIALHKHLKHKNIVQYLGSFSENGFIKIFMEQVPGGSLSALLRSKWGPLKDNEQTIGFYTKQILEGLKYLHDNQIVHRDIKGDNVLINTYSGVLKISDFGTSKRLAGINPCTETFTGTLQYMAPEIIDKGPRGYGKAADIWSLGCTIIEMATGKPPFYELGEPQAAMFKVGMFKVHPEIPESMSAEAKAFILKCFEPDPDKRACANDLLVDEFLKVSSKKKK

Aurora-A (h) = biological target: T4, Aurora-A (h) (human (h), UniProt O14965 1-403)
T4 sequence (looked up): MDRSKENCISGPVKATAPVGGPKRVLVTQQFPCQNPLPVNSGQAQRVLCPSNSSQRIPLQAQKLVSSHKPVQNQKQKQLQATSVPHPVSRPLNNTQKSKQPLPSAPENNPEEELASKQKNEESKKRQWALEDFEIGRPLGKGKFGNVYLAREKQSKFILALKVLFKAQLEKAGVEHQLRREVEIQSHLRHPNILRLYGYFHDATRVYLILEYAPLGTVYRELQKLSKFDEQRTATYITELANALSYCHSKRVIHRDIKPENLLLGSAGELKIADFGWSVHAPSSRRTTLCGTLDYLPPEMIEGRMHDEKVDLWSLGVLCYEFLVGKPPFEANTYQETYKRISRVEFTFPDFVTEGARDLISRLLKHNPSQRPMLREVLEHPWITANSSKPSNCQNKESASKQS

CK2 (h) = CK2 (h) (human (h), UniProt P68400 1-391)
Chain of CK2 (h) (P68400 whole entry): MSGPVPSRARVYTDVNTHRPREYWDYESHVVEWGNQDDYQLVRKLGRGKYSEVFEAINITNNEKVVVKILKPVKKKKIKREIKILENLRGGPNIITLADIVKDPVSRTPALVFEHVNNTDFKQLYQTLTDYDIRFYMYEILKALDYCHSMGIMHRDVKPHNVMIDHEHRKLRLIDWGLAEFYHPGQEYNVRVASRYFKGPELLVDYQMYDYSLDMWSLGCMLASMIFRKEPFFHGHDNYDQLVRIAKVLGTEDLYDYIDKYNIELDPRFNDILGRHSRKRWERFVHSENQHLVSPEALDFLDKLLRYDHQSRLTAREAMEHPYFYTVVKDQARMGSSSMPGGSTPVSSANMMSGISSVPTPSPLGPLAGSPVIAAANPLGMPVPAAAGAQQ

Chain of ROCK-1 (h) (Q13464 17-535 limits assumed): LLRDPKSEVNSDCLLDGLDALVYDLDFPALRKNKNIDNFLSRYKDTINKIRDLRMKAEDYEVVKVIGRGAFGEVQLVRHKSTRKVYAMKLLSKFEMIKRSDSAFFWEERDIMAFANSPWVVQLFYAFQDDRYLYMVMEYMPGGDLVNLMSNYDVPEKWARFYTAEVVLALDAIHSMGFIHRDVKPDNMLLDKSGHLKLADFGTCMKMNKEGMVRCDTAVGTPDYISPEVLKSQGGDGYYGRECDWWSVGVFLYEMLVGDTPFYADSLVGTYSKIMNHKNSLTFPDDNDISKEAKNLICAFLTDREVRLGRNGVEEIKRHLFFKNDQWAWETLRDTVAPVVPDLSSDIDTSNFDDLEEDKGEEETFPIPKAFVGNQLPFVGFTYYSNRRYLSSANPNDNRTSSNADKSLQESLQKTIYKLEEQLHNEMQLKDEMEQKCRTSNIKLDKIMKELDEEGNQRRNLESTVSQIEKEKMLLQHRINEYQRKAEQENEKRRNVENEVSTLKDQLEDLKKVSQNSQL

For KAFAKLAARLYRKALARQLGVAA, the “Profile-1 @ = 100 µm (kinase profiler assay)” value (“Profile-1 @ = 100 µm” for short) (ROCK-1 (h)) was 29, the “Profile-1 @ = 100 µm” value (CHK1 (h)) was 68 and the “Profile-1 @ = 100 µm” value (AMPK (r)) was 118. The “Profile-1 @ = 100 µm” value (KDR (tl)) was 56, the “Profile-1 @ = 100 µm” value (EphA2 (h)) was 22 and the “Profile-1 @ = 100 µm” value (FGFR1 (h)) was 35. For the same binder, the “Profile-1 @ = 100 µm” value (MLCK (h)) was 2, the “Profile-1 @ = 100 µm” value (Src(1-530) (h)) was 3 and the “Profile-1 @ = 100 µm” value (CKIB (h)) was 97. For the same binder, the “Profile-1 @ = 100 µm” value (cKit (h)) was 31, the “Profile-1 @ = 100 µm” value (IGF-IR (h)) was 76 and the “Profile-1 @ = 100 µm” value (Flt3 (h)) was 20. For the same binder, the “Profile-1 @ = 100 µm” value (MAPKAP-K3 (h)) was 17, the “Profile-1 @ = 100 µm” value (MSK2 (h)) was 30 and the “Profile-1 @ = 100 µm” value (EGFR (h)) was 16. The “Profile-1 @ = 100 µm” value (JNK1α1 (h)) was 92, the “Profile-1 @ = 100 µm” value (GSK3β (h)) was 184 and the “Profile-1 @ = 100 µm” value (ASK1 (h)) was 48. The “Profile-1 @ = 100 µm” value (Aurora-A (h)) was 60 and the “Profile-1 @ = 100 µm” value (CK2 (h)) was 79.
